Results taken from patent US7303752B2, “Hookworm vaccine” (The George Washington University, priority 2001, dated 2007).
Several values for one entry are separate records, joined by “and”; a condition that tells them apart may be missing. Identical values can stand only once.

B1: Ac-MTP-2: A. caninum astacin protease antigen, SEQ ID NO: 42; Pichia pastoris expressed (protein, listed as Ancylostoma caninum)
chain: MKYFVLCFCAFFVVNADEEDDLPRNPLWDAYKDDNGKYVIPYVINGSYGEEKKVLFEMMDEIDKNTCVRFIPRSTEQDYIEIVNRLGEGTGAVVGKPGGKSIVLLESSKILNDPTPAPVMQTLMKIIGLPPEHIRPERKDHIKIHWENIEKGYEAFFALSSVKPDPYGIPYDYYSIMHYKKDAFAKPGTITMETLDKRYQDIIGNQEKPSKLDYKKICTKYKCDICMGEKMKY
B2: Ac-MTP-1: A. caninum L3 astacin zinc metalloprotease, SEQ ID NO: 16 (also listed as SEQ ID NO: 40); E. coli fusion protein (protein, listed as Ancylostoma caninum)
chain: MRVLLLLLLLSICASAGFLDTKFGQKIKKTLDKIKAVLNGTALIAIREKFIRLREKIKAKLTLSPARKAILDEVMKHIKMIKKDKIQEKGDSIDEINEKSAIGQLLYQGDIVLTEKQAQQITEDIENDKGDREKRQAFRDRNYPRTLWSKGVYFHFHRNATPEVRSVFVKGAKLWMKDTCIDFFESNSAPDRIRVFKENGCWSYVGRLGGEQDLSLGEGCQSVGTAAHEIGHAIGFYHTHARHDRDNFITFNAQNVKPDWLDQFTLQTPATNENYGITYDYGSIMHYGANSASQNGRPTMVPHDPKYVETLGINKHYDCTKNCDPATSAQCKMGGFPHPRDCTRCICPSGYGGKLCDQKPAGCGSIYQATNQYQTLHDEIGDKRAGQRPREDMDFCYYWITAPKGSKIEIKIAGLSQGAAVEGCQYWGVEIKTHADQRLTGYRFCAPEDVGVRLVSNFNIVPIITYNIFYATYVDIQYRIVGDNVGGPMPQPQPNSNCVDNEQCATLVRTKNFCQSRFFTSSVKRGLCPKSSGFCR
B3: Ac-GST: A. caninum glutathione S transferase, SEQ ID NO: 77; Pichia pastoris expressed (protein, listed as Ancylostoma caninum)
chain: MVHYKLTYFNGRGLGECARQLFALADQQYEDIRVTHEDFPEIKPNLPFGQLPLLNEDGKELAQSNAINRYLARKFGFAGKTPFEEALVDSLADQMTDYRVEIKPFVYTAYGHQKFGDLETLKKDVMLPARDKFLGFITKFLKNNPSGFLVGDSVTWIDLLLAEHASDIQSKVPEYLEGFPEVKAHMEKVRSIPKLKKWIETRPETHF
B4: Ac-CYS: A. caninum cystatin antigen, SEQ ID NO: 100; Pichia pastoris expressed (protein, listed as Ancylostoma caninum)
chain: MPYLAFIVALLACTVMSGHGQMTGGLTKQDPNDPEHMARAWKAAKGINEDASNAGPYHMIPIKIVKAESQVVAGVRYIFEVLFGESTCKKGHMAATELSASNCELKEGGNRALYKVELWEKPWENFEQFNVEKIRNVAAGEQI

Key:
Type in all cases: in vivo, dog
A. caninum [1] = experiment: Canine vaccine trial HV-12, percutaneous challenge with 500 A. caninum L3; settings: for Adult Hookworm Worm Counts, Intestine, Male, Average / Adult Hookworm Worm Counts, Intestine, Female, Average / Adult Hookworm Worm Counts, Total, Average: group average; for Adult Hookworm Worm Counts, Intestine, Male, Average: AS03 control 64; for Adult Hookworm Worm Counts, Intestine, Female, Average: AS03 control 71; for Adult Hookworm Worm Counts, Total, Average: AS03 control 137
Method: (§1) Brief Outline of Study Sections: Purpose bred beagles were randomized into five groups. […] groups were given one of three candidate vaccines: Ac-Cystatin, Ac-MTP-2 and Ac-GST in combination with the adjuvant ASO3. One group will serve as the negative control receiving the adjuvant only. Another group will be a positive control immunized with irradiated infective larvae. Each animal's specific antibody response was evaluated by direct ELISA using serum taken prior to the infective challenge. Cellular immune responses were assessed by peripheral (blood cells) lymphoproliferative responses to specific recombinant antigens and/or crude extract of infective larvae (L3) or adult worms. Local cellular immune responses were performed post mortem with lymphocytes extracted from mesenteric lymph nodes and, if considered, spleen. After immunization, animals were challenged with a known number dose of infective third stage larvae of A. caninum. Quantitative ova counts, used to evaluate worm burden, were determined from fecal samples collected three times per week. […] Tissues from different organs were examined macro and microscopically to assess any consequence of the vaccine, parasite or immune related lesions.
(§2) Administration of Test and Control Articles: The vaccines and adjuvant were administered intramuscularly (IM) […] beginning when the dogs are 62+/−4 days old. The vaccines are boosted at 21+/−3-day intervals. Four doses of the vaccines were given 21 days apart (days 0, 21, 42, and […]). The dogs were challenged percutaneously with 500 A. caninum L3, 14 days after the final vaccination.
Challenge Infection: Ancylostoma caninum larvae were cultured from the eggs collected in the feces of infected dogs. All hookworms in the infective challenge were approximately equal age (17±7 days). The species identity of the infective larva dose were validated using PCR DNA amplification and specific oligonucleotide primers. Overnight-collected feces of A. caninum-infected dogs were cultured, extracted and counted. All dogs were infected by the footpad method with the same dose (500+/−5%, of 3rd stage larvae of A. caninum. Larval challenge occurs on one of three consecutive days (at age 120+/−9 days) in 5 series. To minimize the difference in the infective L3 doses, each series included one dog from each (A-E group). […]
Adult Worm Count. Adult worms retained in the small and large intestines were collected. The small and large bowel will be collected and the small intestine will be suspended (the large bowel will not be suspended) in a container and incubated for at least two hours at 35° C. saline to collect the adult parasites. The adult worms were separated from the intestinal contents, counted, and preserved in formalin for subsequent count and analysis of sex, length and weight. Results and Analysis

[2] = system: antigen-specific IgG1 and IgG2; experiment: Antibody titers in HV-12 (Ac-CYS, Ac-MTP-2, Ac-GST in AS03, irradiated L3); settings: for Antibody titers, IgG1, GEOMEAN / Antibody titers, IgG2, GEOMEAN: geometric mean of group; for Antibody titers, IgG1 / Antibody titers, IgG2: individual dogs, after four immunizations, L3 Extract = group E dogs vaccinated with irradiated L3
Method: as §1, §2
Serum Samples for Quantitative ELISA Antibody Titers: Animals treated with vaccines containing foreign proteins develop an immune response resulting in an increased level of high affinity serum antibodies that are directed against the antigen. […] White blood cells were collected for immunological measurements nine (9) days after the last boost and at the time of euthanasia to address the cellular immune response status and cytokine production upon in vitro restimulation of lymphocytes.

A. caninum [3] = experiment: Canine vaccine trial with Ac-MTP-1, subcutaneous challenge with 500 A. caninum L3
Excerpt: To test whether Ac-MTP-1 could be an effective vaccine, two groups of five (5) purpose-bred male beagles 8+1 wk of age were vaccinated either with the recombinant (expressed and isolated from Escherichia coli) fusion protein formulated with AS02A adjuvant, or adjuvant alone. The composition of AS02A, which has been successfully used in several malaria vaccine clinical studies, is described elsewhere (Lalvani et al, 1999; Bojang et al, 2001; Kester et al, 2001). Details of the animal husbandry and housing conditions were reported previously (Hotez et al, 2002a). The recombinant fusion protein containing a polyhistidine tag was purified from washed E. coli inclusion bodies that were solubilized in 6 M guanidine-HCl in 10 mM Tris HCl, pH 8.0. The solubilized inclusion bodies were processed in 5-10 ml batches by gel filtration chromatography (Sephacryl S-300, 26/60 gel filtration column [Amersham Pharmacia] pre-equilibrated in a buffer containing 0.1 NaH2PO4, 10 mM Tris-HCl and 6 M guanidine) at room temperature (flow rate of 2 ml/minute). Selected fractions containing Ac-MTP-1 (as determined by analysis on sodium dodecyl sulfate-polyacrylamide gel electrophoresis [SDS-PAGE]) were pooled, refolded according to the method of Singh et al (2001), and then loaded onto a 5 ml Hi-Trap IMAC column (Amersham Pharmacia) charged with ZnCl2 and equilibrated in 50 mM sodium phosphate pH 7.2, 1 M urea, and 0.5 M NaCl. The column was subsequently washed with 15 column volumes of equilibration buffer, and the bound protein was eluted with 50 mM sodium phosphate pH7.2, 1 M urea, 0.5 M NaCl, and 50 mM ethylenediamine tetraacetic acid (EDTA). Eluted samples containing protein were pooled and dialyzed against 10 mM Tris-HCl pH 8.0, 5% glycerol, 1 mM dithiothreitol, and 2 mM EDTA.
The recombinant Ac-MTP-1 fusion protein was mixed with SBAS2 adjuvant and administered to each of five dogs in four intramuscular injections on days 1, 4, 43, and 50. […] Antigen-specific canine IgG2 and IgE antibodies were measured by indirect enzyme-linked immunosorbent assay (ELISA) as described previously (Hotez et al, 2002a). […] Quantitative hookworm egg counts (McMaster technique) on each dog were obtained 3 days per wk beginning on day 12 post-infection (PI). Five wk post-infection, the dogs were killed by intravenous barbituate injection, and the adult hookworms were recovered and counted from the small and large intestines at necropsy (Hotez et al., 2002c). The statistical significance of differences between adult hookworm burdens was determined using the Anova test, as were differences in hematological parameters and in quantitative hookworm egg counts. Comparisons of hookworm burden and egg counts with antibody titers were measured using Spearman rank order (nonparametric) correlations. […]

Molecule	Adult Hookworm Worm Counts, Intestine, Male, Average (A. caninum [1])	Adult Hookworm Worm Counts, Intestine, Female, Average (A. caninum [1])	Adult Hookworm Worm Counts, Total, Average (A. caninum [1])	Adult Hookworm Worm Counts, Colon, Female (A. caninum [1]; individual dogs)	Adult Hookworm Worm Counts, Colon, Male (A. caninum [1]; individual dogs)	Adult Hookworm Worm Counts, Intestine, Female (A. caninum [1]; individual dogs)	Adult Hookworm Worm Counts, Intestine, Male (A. caninum [1]; individual dogs)	Adult Hookworm Worm Counts, Total (A. caninum [1]; individual dogs)	Antibody titers, IgG1, GEOMEAN [2]	Antibody titers, IgG2, GEOMEAN [2]	Antibody titers, IgG1 [2]	Antibody titers, IgG2 [2]	further results
B1	61	60	132	10 and 3 and 2 and 15 and 0	11 and 2 and 1 (2×) and 9	71 and 51 and 41 and 65 and 73	64 (2×) and 49 and 41 and 87	156 and 105 and 85 and 153 and 161	62,850	121,500	121,500 (2×) and 40,500 (3×)	364,500 and 121,500 (3×) and 40,500	–
B2	–	–	–	–	–	–	–	–	–	–	–	–	reduction in worm burden, dog with highest versus dog with lowest antibody titer (A. caninum [3]; dog, in vivo): 50%; hookworms recovered from the dog with the highest antibody titer (A. caninum [3]; single vaccinated dog): 98 hookworms; hookworms recovered from the dog with the lowest antibody titer (A. caninum [3]; single vaccinated dog): 189 hookworms; number of adult hookworms recovered (mean+standard deviation) (A. caninum [3]; vaccinated dogs, 5 wk after 500 L3 s.c., control dogs 143+30, not significant): 154+34 hookworms
B3	34	44	83	–	–	–	–	–	13,500	50,452	13,500	–	worm burden reduction relative to AS03 controls (A. caninum [1]; dog, in vivo, listed as GST): 40% and 41%; Adult Hookworm Worm Counts, Colon, Female (A. caninum [1]; individual dogs, listed as GST): 0 (2×) and 3 and 4 and 5; Adult Hookworm Worm Counts, Colon, Male (A. caninum [1]; individual dogs, listed as GST): 0 (2×) and 4 and 7 and 2; Adult Hookworm Worm Counts, Intestine, Female (A. caninum [1]; individual dogs, listed as GST): 81 and 26 and 36 (2×) and 41; Adult Hookworm Worm Counts, Intestine, Male (A. caninum [1]; individual dogs, listed as GST): 50 and 34 and 19 and 33 (2×); Adult Hookworm Worm Counts, Total (A. caninum [1]; individual dogs, listed as GST): 131 and 67 and 55 and 80 and 81; Antibody titers, IgG2 ([2]; listed as GST): 40,500 (4×) and 121,500
B4	49	56	107	0 (3×) and 5 and 2	0 (3×) and 1 and 3	56 and 85 and 29 and 67 and 41	44 and 81 and 38 and 48 and 36	100 and 167 and 67 and 124 and 79	121,500	364,500	121,500 (3×) and 40,500 and 364,500	364,500 (3×) and 121,500 and 1,093,500	Adult Hookworm Worm Counts, Intestine, Unk. Sex (A. caninum [1]; individual dogs): 1
